To fix the notation:
B1: S279_M70aE8 metagenomic GDSL-type esterase (enzyme)
chain: MPKIAKLAPSDVIVAFGDSLTFGTGATEAESYPIVLAQLIGRTVVRAGVPGEVTEGGLARLTDVIEEHKPKLIIVCLGGNDMLRKVQEDQTRANLRAIIKTIKAQGIAVVLVGVPKPALVTSAPPFYEEIAKEFGIPYEGKIVTDVLYQRDQKSDSIHPNAKGYRRMAEAIATLLKKSGAI
B2: Sinorhizobium meliloti SmeI (SMa1993) (enzyme)
chain: MTINSHSWRTLMVEKRSVLCFGDSLTWGWIPVKGSSPTLRYPYEQRWTGAMAARLGDGYHIIEEGLSARTTSLDDPNDARLNGSTYLPMALASHLPLDLVIIMLGTNDTKSYFHRTPYEIANGMGKLVGQVLTCAGGVGTPYPAPKVLVVAPPPLAPMPDPWFEGMFGGGYEKSKELSGLYKALADFMKVEFFAAGDCISTDGIDGIHLSAETNIRLGHAIADKVAALF
B3: Moraxella bovis Mbo (AAK53448) (enzyme)
chain: KEFSQVIIFGDSLSDTGRLKDMVARKDGTLGNTLQPSFTTNPDPVWSSLFAQSYGKTASPNTPDNPTGTNYAVGGARSGSEVNWNGFVNVPSTKTQITDHLTATGGKADPNTLYAIWIGSNDLISASQATTTAEAQNAIKGAVTRTVIDIETLNQAGATTILVPNVPDLSLTPRAIYGESLMAGVQDKAKLASSLYNSGLFEALNQSTANIIPANTFALLQEATTNKEAFGFKNTQGVACQMPARTTGADDVASTSLACTKANLIENGANDTYAFADDIHPSGRTHRILAQYYRSIMDAPTHMGKLSGELVKTGSAHDRHVYRQLDRLSGSQHSIWANVYASDRTDPTTQIGLDVAGSSSHTGAYLSHQNQDYVLDDTLSSDVKTIGMGLYHRHDIGNVRLKGVAGIDRLSVDTHRHIDWEGTSRSHTADTTARRFHAGLQASYGIDMGKATVRPLIGVHAQKVKVNDMTESESTLSTAMRFGEQEQKSLQGEIGVDVAYPISPALTLTGGIAHAHEFNDDERTINATLTSIREYTKGFNTSVSTDKSHATTAHLGVQGQLGKANIHAGVHATHQDSDTDVGGSLGVRLMF
notes: Described as an outer membrane localized autotransporter protein; also called pET26_Mbo
B4: Sinorhizobium meliloti SmeII (Q92XZ1) (enzyme)
chain: MEETVARTVLCFGDSNTHGQVPGRGPLDRYRREQRWGGVLQGLLGPNWQVIEEGLSGRTTVHDDPIEGSLKNGRTYLRPCLQSHAPLDLIIIMLGTNDLKRRFNMPPSEVAMGIGCLVHDIRELSPGRTGNDPEIMIVAPPPMLEDLKEWESIFSGAQEKSRKLALEFEIMADSLEAHFFDAGTVCQCSPADGFHIDEDAHRLLGEALAQEVLAIGWPDA
notes: Expressed in E. coli from pET26_SmeII; also called pET26_SmeII
B5: Salmonella typhimurium Stm (AAC38796) (enzyme)
chain: FDSLTVIGDSLSDTGNNGRWTWDSGQNKLYDEQLAERYGLELSPSSNGGSNYAAGGATATPELNPQDNTADQVRQWLAKTGGKADHNGLYIHWVGGNDLAAAIAQPTMAQQIAGNSATSAAAQVGLLLDAGAGLVVVPNVPDISATPMLLEAVITAGLGAAAPPALKAALDALAEGATPDFASRQQAIRKALLAAAATVSSNPFIQQLLVEQLLAGYEAAAGQASALTDYYNQMEEKGLEQHGGNIARADINGLFKEILANPQAFGLTNTVGMACPPGVSASACSSAMPGFNASQDYVFADHLHPGPQVHTIIAQYIQSIIAAPVQATYLNQSVQSMAQGSRTTLDSRYQQLRQGENPVGSLGMFGGYSGGYQRYDNNEADGNGNHNNLTVGVDYQLNEQVLLGGLIAGSLDKQHPDDNYRYDARGFQAAVFSHLRAGQAWLDSDLHFLSAKFSNIQRSITLGALRRVEEGETNGRLSGASLTSGYDFVMVPWLTTGPMLQYAWDYSHVNGYSEKLNTSTSMRFGDQNAHSQVGSAGWRLDLRHSIIHSWAQINYRRQFGDDTYVANGGLKSTALTFSRDGKTQDKNWVDIAIGADFPLSATVSAFAGLSQTAGLSDGNQTRYNVGFSARF
notes: Described as an outer membrane localized autotransporter protein; also called Sty
B6: S261_M2aA12 metagenomic GDSL-type esterase (enzyme)
chain: MKNILAFGDSLTWGFVAGQDARHPFETRWPNALAAGLGGKARVIEEGQNGRTTVFDDAATFESRNGSVALPLLLISHQPLDLVIIMLGTNDIKFAARCRAFDASMGMERLIQIVRSANYMKGYKIPEILIISPPSLVPTQDEWFNDLWGHAIAESKLFAKHYKRVAEELKVHFFDAGTVAVADKTDGGHLDAVNTKAIGVALVPVVKSILAL
notes: Metagenomic clone; also called pET26_m2aA12
B7: Mesorhizobium loti Mlo I (Q98MY5) (enzyme)
chain: MKTVLCYGDSLTWGYNAEGGRHALEDRWPSVLQAALGAGVQVIADGLNGRTTAFDDHLAGADRNGARLLPTVLTTHAPIDLIIFMLGANDMKPWIHGNPVAAKQGIQRLIDIVRGHDYPFDWPAPQILIVAPPVVSRTENADFKEMFAGGDDASKFLAPQYAALADEAGCGFFDAGSVAQTTPLDGVHLDAENTREIGKALTPIVRVMLEL
notes: Expressed in E. coli from pET26_Mlo; also called pET26_Mlo; pET26_MlO
B8: Sinorhizobium meliloti RSM02162 (G00355) (enzyme)
chain: MVEKRSVLCFGDSLTWGWIPVKESSPTLRYPYEQRWTGAMAARLGDGYHIIEEGLSARTTSLDDPNDARLNGSTYLPMALASHLPLDLVIIMLGTNDTKSYFHRTPYEIANGMGKLVGQVLTCAGGVGTPYPAPKVLVVAPPPLAPMPDPWFEGMFGGGYEKSKELSGLYKALADFMKVEFFAAGDCISTDGIDGIHLSAETNIRLGHAIADKVAALF
notes: Synthetic gene G00355, expressed in E. coli from pMC355rbs; also called pMC355rbs

The first data set concerns the target S279_M70aE8 metagenomic GDSL-type esterase. The experiment in a line: self-association; Sephadex 200 sizing column, fractions assayed for pNB activity; standards 669 kDa 16 ml, 158 kDa 24 ml, 43 kDa 26 ml, 14 kDa 32 ml.
The molecule B1 came in with an elution volume of 32 mL.

Another data set deals with the molecule itself. Described as above.
With B2, the elution volume amounted to 24 mL.
The same measure, in the same setting: in the case of B3 it was 24 mL; in that of B4, 24 mL; in that of B5, 24 mL.
B6 yielded an elution volume of 24 mL.
Still for that read-out and setting: in the case of B7 it was 24 mL.
The same measure, in the same setting: as for B8, the figure is 24 mL.

The values above are taken from patent publication US8772007 (dated 2014).
